{"source": "patent US20210145976A1", "binders": {"B1": {"name": "SEQ ID NO 189 (designed binder)", "chain": "MLPAPKNLVVSRVTEDSARLSWTAPDAAFDSFHEWVYFGEAIVLTVPGSERSYDLTGLKPGTEYFVDIWGVKGGTVSKPLSAIFTT"}, "B2": {"name": "SEQ ID NO 170 (designed binder)", "chain": "MLPAPKNLVVSRVTEDSARLSWTAPDAAFDSFFIGYPEYPATGEAIVLTVPGSERSYDLTGLKPGTEYFVDINGVKGGSLSYPLSAIFTT"}, "B3": {"name": "SEQ ID NO 162 (designed binder)", "chain": "MLPAPKNLVVSRVTEDSARLSWTAPDAAFDSFHIAYEEATTYGEAIFLRVPGSERSYDLTGLKPGTEYDVWIEGVKGGTISGPLSAIFTT"}, "B4": {"name": "SEQ ID NO 171 (designed binder)", "chain": "MLPAPKNLVVSRVTEDSARLSWTAPDAAFDSFAIRYLEWWDVGEAIVLTVPGSERSYDLTGLKPGTEYLVEIKGVKGGKFSYPLSAIFTT"}, "B5": {"name": "SEQ ID NO 199 (designed binder)", "chain": "B4 chain with A33G, L37F, V42L, L59P, L69N, E71T, K73Q, K79F, F80P, Y82M"}, "B6": {"name": "SEQ ID NO 190 (designed binder)", "chain": "MLPAPKNLVVSRVTEDSARLSWTAPDAAFDSFFIGYPEYPATGEAITLFVPGSERSYDLTGLKPGTEYNVVIQGVKGGRPSNPLVVAFTT"}, "B7": {"name": "SEQ ID NO 179 (designed binder)", "chain": "MLPAPKNLVVSRVTEDSARLSWTAPDAAFDSFYIAYAEPRPDGEAIVLTVPGSERSYDLTGLKPGTEYPVPIPGVKGGPGSSPLSAIFTT"}, "B8": {"name": "SEQ ID NO 168 (designed binder)", "chain": "MLPAPKNLVVSRVTEDSARLSWTTPDAAFDSFFIGYLEPYPPGEAIVLTVPGSERSYDLTGLKPGTEYVVSIQGVKGGKPSDPLSAIFTT"}, "B9": {"name": "SEQ ID NO 192 (designed binder)", "chain": "B8 chain with T24A, P25L, Y40Q, V69N, S71T, K79F, D82M"}, "B10": {"name": "SEQ ID NO 177 (designed binder)", "chain": "B8 chain with T24A, Y40Q, V69N, S71T, K79R, P80A, D82G"}, "B11": {"name": "SEQ ID NO 174 (designed binder)", "chain": "B8 chain with T24A, Y40Q, V69K, S71V, K79T, D82E"}, "B12": {"name": "SEQ ID NO 182 (designed binder)", "chain": "B8 chain with T24A, K79T, D82Q"}, "B13": {"name": "SEQ ID NO 191 (designed binder)", "chain": "MLPAPENLVVSRVTEDSARLSWTAPDAAFDSFEITYEENWRRGEAIVLTVPGSERSYDLTGPKPGTEYIVIIQGVKGGAESWPLSAIFTT"}, "B14": {"name": "SEQ ID NO 185 (designed binder)", "chain": "MLPAPKNLVVSRVTEDSARLSWTAPDAAFDSFEIDYDELAIYGEAIVLTVPGSERSYDLTGLKPGTEYGVMIIGVKGGLPSDPLSAIFTT"}, "B15": {"name": "SEQ ID NO 205 (designed binder)", "chain": "B14 chain with E33D, L39P, I41W, Y42N, G69R, M71F, I73Y, L79N, P80T, D82W"}, "B16": {"name": "SEQ ID NO 194 (designed binder)", "chain": "B14 chain with G69R, M71F, I73Y, L79W, P80T, D82W, A86T"}, "B17": {"name": "SEQ ID NO 193 (designed binder)", "chain": "MLPAPKNLVVSRVTEDSARLSWTAPDAAFDSFTIWYAEAVGNGEAIVLTVPGSERSYDLTGLKPGTEYWVDIWGVKGGEFSSPLSAIFTT"}, "B18": {"name": "SEQ ID NO 197 (designed binder)", "chain": "B17 chain with T33K, W35D, A37L, A39I, V40N, G41D, W69P, D71Y, E79Y, F80P"}, "B19": {"name": "SEQ ID NO 172 (designed binder)", "chain": "MLPAPKNLVVSRVTEDSARLSWTAPDAAFDSFPIEYDEWWALGEAITLIVPASERSYDLTGLKPGTEYVVKIHGVKGGQRSYPLIAFFTT"}, "B20": {"name": "SEQ ID NO 196 (designed binder)", "chain": "MLPAPKNLVVSRVTEDSARLSWTAPDAAFDSFNIHYVEWWVLGEAIVLTVPGSERSYDLTGLKPGTEYPVYIYGVKGGPKSIPLSAIFTT"}, "B21": {"name": "SEQ ID NO 201 (designed binder)", "chain": "B20 chain with H35D, V37W, W39T, L42I, P69E, Y71I, Y73P, P79T, K80I, I82P"}, "B22": {"name": "SEQ ID NO 180 (designed binder)", "chain": "MLPAPKNLVVSRVTEDSARLSWTAPDAAFDSFEISYYEMRGYGEAIVLTVPGSERSYDLTGLKPGTEYSVLIHGVEGGDYSSPLSAISTT"}, "B23": {"name": "SEQ ID NO 173 (designed binder)", "chain": "MLPAPKNLVVSRVTEDSARLSWTAPDAAFDSFTIHYRELYVQAIVLTVPGSERSYDLTGLKPGTEYLVMIPGVKGGPTSVPLSAIFTT"}, "B24": {"name": "SEQ ID NO 43 (designed binder)", "chain": "MLPAPKNLVVSRVTEDSARLSWTAPDAAFDSFYIEYYESYPGGEAIVLTVPGSERSYDLTGLKPGTEYDVYIYGVKGGYWSRPLSAIFTT"}, "B25": {"name": "SEQ ID NO 203 (designed binder)", "chain": "B24 chain with F29L, Y33R, P41G, G42H, Y71G, W80Y"}, "B26": {"name": "SEQ ID NO 200 (designed binder)", "chain": "B24 chain with S39W, Y40M, P41H, G42T, D69S, W80P, R82S"}, "B27": {"name": "SEQ ID NO 202 (designed binder)", "chain": "B24 chain with E35D, Y37L, S39L, Y40T, P41Y, G42S, D69Y, W80P, R82S"}, "B28": {"name": "SEQ ID NO 44 (designed binder)", "chain": "B24 chain with Y40L, G42D, D69A, W80Y"}, "B29": {"name": "SEQ ID NO 45 (designed binder)", "chain": "B24 chain with Y33A, E35Y, Y37L, G42E, D69W, Y71G, Y73D, Y79T, R82S"}, "B30": {"name": "SEQ ID NO 166 (designed binder)", "chain": "MLPAPKNLVVSRVTEDSARLSWTAPDAAFDSFTILYNEIQNVGEAIVLTVPGSERSYDLTGLKPGTEYDVWIEGVKGGELSWPLSAIFTT"}, "B31": {"name": "SEQ ID NO 195 (designed binder)", "chain": "B30 chain with T33P, L35E, N37D, Q40P, N41F, V42W, D69R, E73H, E79N, L80S"}, "B32": {"name": "SEQ ID NO 198 (designed binder)", "chain": "B30 chain with T33L, L35A, I39D, Q40R, N41K, V42F, E79S, W82F"}, "B33": {"name": "SEQ ID NO 204 (designed binder)", "chain": "MLPAPKNLVVSRVTEDSARLPWTAPDAAFDSFWISYYESVGYGEAIVLTVPGSERSYDLTGLKPGTEYYVDISGVKGGVYSLPLSAIFTT"}, "B34": {"name": "SEQ ID NO 187 (designed binder)", "chain": "MLPAPKNLVVSRVTEDSARLSWTAPDAAFDSFVIEYFEFVGYGEAIVLTVPGSERSYDLTGLKPGTEYSVGIYGVKGGKLSPPLSAIFTT"}, "B35": {"name": "SEQ ID NO 46 (designed binder)", "chain": "B34 chain with V33T, V40T, Y42T, S69Y, G71S, K79L, P82A"}, "B36": {"name": "SEQ ID NO 165 (designed binder)", "chain": "MLPARKNLVVSRVTEDSARLSWTAPDAAFDSFFIPYAEPSPTGEAIVLTVPGSERSYDLTGLKPGTEYSVLIHGVKGGHLSDPLSAISTT"}, "B37": {"name": "SEQ ID NO 188 (designed binder)", "chain": "B36 chain with R5P, F33L, P39T, T42S, H79K, D82L, S88F"}, "B38": {"name": "SEQ ID NO 178 (designed binder)", "chain": "B7 chain with Y33D, R40I, D42R, P69S, P71L, P73H, P79R, G80R, S82V"}, "B39": {"name": "SEQ ID NO 175 (designed binder)", "chain": "B8 chain with T24A, Y40Q, V69S, S71V, K79F"}, "B40": {"name": "SEQ ID NO 176 (designed binder)", "chain": "B7 chain with Y33P, P69S, P71G, P73H, P79H, G80D"}, "B41": {"name": "SEQ ID NO 183 (designed binder)", "chain": "B36 chain with R5P, F33L, P39T, T42S, H79R, L80P, D82N, S85V, I87A, S88F"}, "B42": {"name": "SEQ ID NO 181 (designed binder)", "chain": "B7 chain with R12H, Y33P, P69S, P71L, P73H, P79L, G80L"}, "B43": {"name": "SEQ ID NO 186 (designed binder)", "chain": "MLPAPKNLVVSRVTEDSARLSWTAPDAAFDSFFIGYLESAEAIVLTVPGSERSYDLTGLKPGTEYLVTIQGVKGGIASDPLSAIFTT"}}, "note": "Where a chain is given by its changes, count along the chain named."}
{"biological_target": "human serum albumin (human) (UniProt P02768)", "sequence (P02768 25-609 limits assumed)": "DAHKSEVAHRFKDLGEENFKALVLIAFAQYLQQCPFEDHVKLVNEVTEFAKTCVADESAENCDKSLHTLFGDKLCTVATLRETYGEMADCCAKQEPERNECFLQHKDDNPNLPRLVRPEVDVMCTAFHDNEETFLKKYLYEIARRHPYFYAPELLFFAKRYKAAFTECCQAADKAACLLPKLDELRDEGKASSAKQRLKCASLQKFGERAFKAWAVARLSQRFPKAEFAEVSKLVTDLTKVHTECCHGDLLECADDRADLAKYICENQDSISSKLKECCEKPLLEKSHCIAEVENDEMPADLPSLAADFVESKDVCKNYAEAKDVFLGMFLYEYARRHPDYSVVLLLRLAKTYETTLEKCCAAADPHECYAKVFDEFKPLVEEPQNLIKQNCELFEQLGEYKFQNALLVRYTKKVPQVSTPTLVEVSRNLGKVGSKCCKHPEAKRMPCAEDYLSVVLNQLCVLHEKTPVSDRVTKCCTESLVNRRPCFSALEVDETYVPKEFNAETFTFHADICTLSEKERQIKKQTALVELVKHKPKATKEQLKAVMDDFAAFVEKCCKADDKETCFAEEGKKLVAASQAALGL", "test": "screening ELISA"}
{"binder": "B1", "HSA": 67500}
{"binder": "B2", "HSA": 16800}
{"binder": "B3", "HSA": 1850}
{"binder": "B4", "HSA": 1900}
{"binder": "B5", "HSA": 14400}
{"binder": "B6", "HSA": 4900}
{"binder": "B7", "HSA": 74700}
{"binder": "B8", "HSA": 1950}
{"binder": "B9", "HSA": 4100}
{"binder": "B10", "HSA": 2450}
{"binder": "B11", "HSA": 2200}
{"binder": "B12", "HSA": 2950}
{"binder": "B13", "HSA": 34000}
{"binder": "B14", "HSA": 9950}
{"binder": "B15", "HSA": 3350}
{"binder": "B16", "HSA": 17800}
{"binder": "B17", "HSA": 2500}
{"binder": "B18", "HSA": 18900}
{"binder": "B19", "HSA": 3700}
{"binder": "B20", "HSA": 34600}
{"binder": "B21", "HSA": 11400}
{"binder": "B22", "HSA": 33500}
{"binder": "B23", "HSA": 20800}
{"binder": "B24", "HSA": 8160}
{"binder": "B25", "HSA": 3300}
{"binder": "B26", "HSA": 2100}
{"binder": "B27", "HSA": 2800}
{"binder": "B28", "HSA": 3920}
{"binder": "B29", "HSA": 2880}
{"binder": "B30", "HSA": 5050}
{"binder": "B31", "HSA": 90200}
{"binder": "B32", "HSA": 3050}
{"binder": "B33", "HSA": 24600}
{"binder": "B34", "HSA": 7250}
{"binder": "B35", "HSA": 3040}
{"binder": "B36", "HSA": 65200}
{"binder": "B37", "HSA": 3350}
{"binder": "B38", "HSA": 2250}
{"binder": "B39", "HSA": 1600}
{"binder": "B40", "HSA": 10400}
{"binder": "B41", "HSA": 10700}
{"binder": "B42", "HSA": 6000}
{"binder": "B43", "HSA": 1850}
